Experimental findings from US20190338011A1 are described below.

The target in experiment [1] is human MIC-A (expressed on P815 mastocytoma cells) (human) (UniProt Q29983). The experiment can be described thus: cell-based or functional assay.
The target of experiment [2] is human NKG2D ligand on human tumor cell lines (Jurkat, RPMI8866, K562, Daubi, U937, ECC-1). Nature of the experiment: cell-based or functional assay.

Chain of UniProt Q29983 (Q29983 24-383): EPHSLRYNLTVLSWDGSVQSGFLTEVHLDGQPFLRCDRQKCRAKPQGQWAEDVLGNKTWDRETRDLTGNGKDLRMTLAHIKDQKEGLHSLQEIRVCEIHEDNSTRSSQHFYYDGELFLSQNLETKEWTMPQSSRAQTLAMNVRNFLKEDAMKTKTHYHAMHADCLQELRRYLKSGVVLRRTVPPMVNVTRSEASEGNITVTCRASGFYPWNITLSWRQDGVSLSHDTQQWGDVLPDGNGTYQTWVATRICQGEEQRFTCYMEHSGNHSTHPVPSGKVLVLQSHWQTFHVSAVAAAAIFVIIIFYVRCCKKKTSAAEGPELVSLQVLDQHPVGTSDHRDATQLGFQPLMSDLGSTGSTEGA

As for “human chimeric NKG2D (human CD3ζ attached to the N-terminus of human NKG2D) (receptor)”, in experiment [1], the Specific Lysis (%) of P815/MIC-A, Effector:Target Ratio 1 was 5.4%; the Specific Lysis (%) of P815/MIC-A, Effector:Target Ratio 5 turned out to be 17.3%; the Specific Lysis (%) of P815/MIC-A, Effector:Target Ratio 25 was found to be 35.4%. In experiment [2], the Specific Lysis (%) of K562, Effector:Target Ratio 1, with control antibody stood at 3.1%; the Specific Lysis (%) of K562, Effector:Target Ratio 5, with control antibody worked out at 17.6%; the Specific Lysis (%) of K562, Effector:Target Ratio 25, with control antibody was 53.8%; the Specific Lysis (%) of RPMI8866, Effector:Target Ratio 1, with control antibody came out at 9.3%. Also, in experiment [2], the Specific Lysis (%) of RPMI8866, Effector:Target Ratio 5, with control antibody came out at 27.4% and the Specific Lysis (%) of RPMI8866, Effector:Target Ratio 25, with control antibody was 41.6%.
